This note sets out measurements from PMC7176432, “Single-molecule functional anatomy of endogenous HER2-HER3 heterodimers” (eLife, 2020).

The Km is the substrate concentration at which the rate is half of its maximum.

This data set deals with T1, Nc1ncnc2c1ncn2[C@@H]1O[C@H](COP(=O)(O)OP(=O)(O)OP(=O)(O)O)[C@@H](O)[C@H]1O.
T1 construct: entire endogenous HER2, ligand-free HER2 complexes immunoprecipitated from SKBR3 cells
Briefly: Michaelis-Menten titration of ATP, single-molecule pTyr1196 immunolabeling (KM). The class given is biochemical, Homo sapiens. To be noted: Mg2+.

Regarding HER2 (Homo sapiens), the Km was determined as 16.46 µM.
